In patent publication US20150344570A1 (published 2015):

T1: FcγRIIb extracellular domain with C-terminal His tag (human, UniProt P31994 43-217)
T1 construct: extracellular domain; also called FcgRIIb; 2b
T1 sequence (looked up): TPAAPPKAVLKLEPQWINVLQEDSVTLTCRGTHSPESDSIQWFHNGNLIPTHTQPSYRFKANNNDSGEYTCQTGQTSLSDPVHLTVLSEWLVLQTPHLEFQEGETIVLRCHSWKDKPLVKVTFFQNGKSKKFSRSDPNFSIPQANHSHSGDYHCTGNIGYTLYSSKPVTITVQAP

B1: GpH7-A5/GpH7-B3 variant P238_03V/GpL16-k0 (antibody, human IgG1, kappa)
heavy 1: not shown
heavy 2: not shown
light: DIVMTQSPLSLPVTPGEPASISCQASESLVHSNRNTYLHWYLQKPGQSPQLLIYKVSNRFSGVPDRFSGSGSGTDFTLKISRVEAEDVGVYYCSQNTHVPPTFGQGTKVEIERTVAAPSVFIFPPSDEQLKSGTASVVCLLNNFYPREAKVQWKVDNALQSGNSQESVTEQDSKDSTYSLSSTLTLSKADYEKHKVYACEVTHQGLSSPVTKSFNRGEC
notes: also called He Ab P238_03V
B2: GpH7-A5/GpH7-B3 variant L328_02A/GpL16-k0 (antibody, human IgG1, kappa)
heavy 1: not shown
heavy 2: not shown
light: B1 light
notes: also called He Ab L328_02A
B3: GpH7-A5/GpH7-B3 variant G237_08L/GpL16-k0 (antibody, human IgG1, kappa)
heavy 1: not shown
heavy 2: not shown
light: B1 light
notes: also called He Ab G237_08L
B4: GpH7-A5/GpH7-B3 variant P238_10E/GpL16-k0 (antibody, human IgG1, kappa)
heavy 1: not shown
heavy 2: not shown
light: B1 light
notes: also called He Ab P238_10E
B5: GpH7-A5/GpH7-B3 variant L328_10E/GpL16-k0 (antibody, human IgG1, kappa)
heavy 1: not shown
heavy 2: not shown
light: B1 light
notes: also called He Ab L328_10E
B6: GpH7-A5/GpH7-B3 variant P331_15Y/GpL16-k0 (antibody, human IgG1, kappa)
heavy 1: not shown
heavy 2: not shown
light: B1 light
notes: also called He Ab P331_15Y
B7: GpH7-A5/GpH7-B3 variant I336_08L/GpL16-k0 (antibody, human IgG1, kappa)
heavy 1: not shown
heavy 2: not shown
light: B1 light
notes: also called He Ab I336_08L
B8: GpH7-A5/GpH7-B3 variant L235_04F/GpL16-k0 (antibody, human IgG1, kappa)
heavy 1: not shown
heavy 2: not shown
light: B1 light
notes: also called He Ab L235_04F
B9: GpH7-A5/GpH7-B3 variant P331_07I/GpL16-k0 (antibody, human IgG1, kappa)
heavy 1: not shown
heavy 2: not shown
light: B1 light
notes: also called He Ab P331_07I
B10: GpH7-A5/GpH7-B3 variant P238_16H/GpL16-k0 (antibody, human IgG1, kappa)
heavy 1: not shown
heavy 2: not shown
light: B1 light
notes: also called He Ab P238_16H
B11: GpH7-A5/GpH7-B3 variant P238_04F/GpL16-k0 (antibody, human IgG1, kappa)
heavy 1: not shown
heavy 2: not shown
light: B1 light
notes: also called He Ab P238_04F
B12: GpH7-A5/GpH7-B3 variant S239_03V/GpL16-k0 (antibody, human IgG1, kappa)
heavy 1: not shown
heavy 2: not shown
light: B1 light
notes: also called He Ab S239_03V
B13: GpH7-A5/GpH7-B3 variant P238_15Y/GpL16-k0 (antibody, human IgG1, kappa)
heavy 1: not shown
heavy 2: not shown
light: B1 light
notes: also called He Ab P238_15Y
B14: GpH7-A5/GpH7-B3 variant G237_15Y/GpL16-k0 (antibody, human IgG1, kappa)
heavy 1: not shown
heavy 2: not shown
light: B1 light
notes: also called He Ab G237_15Y
B15: GpH7-A5/GpH7-B3 variant K326_07I/GpL16-k0 (antibody, human IgG1, kappa)
heavy 1: not shown
heavy 2: not shown
light: B1 light
notes: also called He Ab K326_07I
B16: GpH7-A5/GpH7-B3 variant N325_01G/GpL16-k0 (antibody, human IgG1, kappa)
heavy 1: not shown
heavy 2: not shown
light: B1 light
notes: also called He Ab N325_01G
B17: GpH7-A5/GpH7-B3 variant G237_06M/GpL16-k0 (antibody, human IgG1, kappa)
heavy 1: not shown
heavy 2: not shown
light: B1 light
notes: also called He Ab G237_06M
B18: GpH7-A5/GpH7-B3 variant G237_19Q/GpL16-k0 (antibody, human IgG1, kappa)
heavy 1: not shown
heavy 2: not shown
light: B1 light
notes: also called He Ab G237_19Q
B19: GpH7-A5/GpH7-B3 variant H268_15Y/GpL16-k0 (antibody, human IgG1, kappa)
heavy 1: not shown
heavy 2: not shown
light: B1 light
notes: also called He Ab H268_15Y
B20: GpH7-A5/GpH7-B3 variant G237_10E/GpL16-k0 (antibody, human IgG1, kappa)
heavy 1: not shown
heavy 2: not shown
light: B1 light
notes: also called He Ab G237_10E
B21: GpH7-A5/GpH7-B3 variant P331_10E/GpL16-k0 (antibody, human IgG1, kappa)
heavy 1: not shown
heavy 2: not shown
light: B1 light
notes: also called He Ab P331_10E
B22: GpH7-A5/GpH7-B3 variant P238_06M/GpL16-k0 (antibody, human IgG1, kappa)
heavy 1: not shown
heavy 2: not shown
light: B1 light
notes: also called He Ab P238_06M
B23: GpH7-A5/GpH7-B3 variant L234_20W/GpL16-k0 (antibody, human IgG1, kappa)
heavy 1: not shown
heavy 2: not shown
light: B1 light
notes: also called He Ab L234_20W
B24: GpH7-A5/GpH7-B3 variant N325_03V/GpL16-k0 (antibody, human IgG1, kappa)
heavy 1: not shown
heavy 2: not shown
light: B1 light
notes: also called He Ab N325_03V
B25: GpH7-A5/GpH7-B3 variant N325_06M/GpL16-k0 (antibody, human IgG1, kappa)
heavy 1: not shown
heavy 2: not shown
light: B1 light
notes: also called He Ab N325_06M
B26: GpH7-A5/GpH7-B3 variant I332_02A/GpL16-k0 (antibody, human IgG1, kappa)
heavy 1: not shown
heavy 2: not shown
light: B1 light
notes: also called He Ab I332_02A
B27: GpH7-A5/GpH7-B3 variant L328_13S/GpL16-k0 (antibody, human IgG1, kappa)
heavy 1: not shown
heavy 2: not shown
light: B1 light
notes: also called He Ab L328_13S
B28: GpH7-A5/GpH7-B3 variant G237_20W/GpL16-k0 (antibody, human IgG1, kappa)
heavy 1: not shown
heavy 2: not shown
light: B1 light
notes: also called He Ab G237_20W
B29: GpH7-A5/GpH7-B3 variant K326_20W/GpL16-k0 (antibody, human IgG1, kappa)
heavy 1: not shown
heavy 2: not shown
light: B1 light
notes: also called He Ab K326_20W
B30: GpH7-A5/GpH7-B3 variant L235_09D/GpL16-k0 (antibody, human IgG1, kappa)
heavy 1: not shown
heavy 2: not shown
light: B1 light
notes: also called He Ab L235_09D

molecular target: T1, FcγRIIb extracellular domain with …; assay: SPR (Biacore), relative binding

He/Con_2b	Binder
120 % of HeCon Ab GpH7-A5/GpH7-B3/GpL16-k0	B1
144 % of HeCon Ab GpH7-A5/GpH7-B3/GpL16-k0	B2
148 % of HeCon Ab GpH7-A5/GpH7-B3/GpL16-k0	B3
232 % of HeCon Ab GpH7-A5/GpH7-B3/GpL16-k0	B4
172 % of HeCon Ab GpH7-A5/GpH7-B3/GpL16-k0	B5
114 % of HeCon Ab GpH7-A5/GpH7-B3/GpL16-k0	B6
107 % of HeCon Ab GpH7-A5/GpH7-B3/GpL16-k0	B7
118 % of HeCon Ab GpH7-A5/GpH7-B3/GpL16-k0	B8
114 % of HeCon Ab GpH7-A5/GpH7-B3/GpL16-k0	B9
115 % of HeCon Ab GpH7-A5/GpH7-B3/GpL16-k0	B10
312 % of HeCon Ab GpH7-A5/GpH7-B3/GpL16-k0	B11
108 % of HeCon Ab GpH7-A5/GpH7-B3/GpL16-k0	B12
218 % of HeCon Ab GpH7-A5/GpH7-B3/GpL16-k0	B13
152 % of HeCon Ab GpH7-A5/GpH7-B3/GpL16-k0	B14
199 % of HeCon Ab GpH7-A5/GpH7-B3/GpL16-k0	B15
101 % of HeCon Ab GpH7-A5/GpH7-B3/GpL16-k0	B16
130 % of HeCon Ab GpH7-A5/GpH7-B3/GpL16-k0	B17
108 % of HeCon Ab GpH7-A5/GpH7-B3/GpL16-k0	B18
106 % of HeCon Ab GpH7-A5/GpH7-B3/GpL16-k0	B19
114 % of HeCon Ab GpH7-A5/GpH7-B3/GpL16-k0	B20
116 % of HeCon Ab GpH7-A5/GpH7-B3/GpL16-k0	B21
174 % of HeCon Ab GpH7-A5/GpH7-B3/GpL16-k0	B22
114 % of HeCon Ab GpH7-A5/GpH7-B3/GpL16-k0	B23
111 % of HeCon Ab GpH7-A5/GpH7-B3/GpL16-k0	B24
217 % of HeCon Ab GpH7-A5/GpH7-B3/GpL16-k0	B25
103 % of HeCon Ab GpH7-A5/GpH7-B3/GpL16-k0	B26
149 % of HeCon Ab GpH7-A5/GpH7-B3/GpL16-k0	B27
193 % of HeCon Ab GpH7-A5/GpH7-B3/GpL16-k0	B28
148 % of HeCon Ab GpH7-A5/GpH7-B3/GpL16-k0	B29
106 % of HeCon Ab GpH7-A5/GpH7-B3/GpL16-k0	B30
